Here are results for 36 variants from the Human Domainome abundance scans (Beltran et al. 2025).

± gives the uncertainty stated by the source.

The chains are these.
B1: Steroid hormone receptor ERR2, residues 100 to 176; numbered along this chain, O95718 (parent)
chain: KRLCLVCGDIASGYHYGVASCEACKAFFKRTIQGNIEYSCPATNECEITKRRRKSCQACRFMKCLKVGMLKEGVRLD

In the data set the parent is B1. Put plainly: abundance fitness (aPCA) (normalised: wild type 0, dead -1); higher = more abundant; growth selection in yeast, the domain comes from the species named. Conditions: Homo sapiens.
For KRLCLVCGDIASGYHYGVASCEACKAFFKRTIQGNIEYSCPATNECEITKRRRKSCQACRFMKCLKVGMLKEGLRLD [V74L], the abundance fitness is -0.004 ± 0.05. Consider KRLCLVCGDIASGYHYGVASCEACKAFFKRTICGNIEYSCPATNECEITKRRRKSCQACRFMKCLKVGMLKEGVRLD [Q33C], for which the abundance fitness is -0.114 ± 0.068. Regarding KRLCLVCGDIASGYHYGVASCEACKAFFKRTIQGNIEYSCPATNECEITKRRRKSCQACRFMKCLKLGMLKEGVRLD [V67L], the abundance fitness was -0.222 ± 0.057. With KRLCLVCGDIASGYHYGVASCEACKAFFKRTIQGNIEYSCPATNECEITKRRRKSCQACRFMKCLKHGMLKEGVRLD [V67H], the abundance fitness was -0.321 ± 0.17. Turning to KRLCLVCGDIASGYHYGVASCEACKAFFKRTIQGNIEYSCPATNECEITKRRRKSCGACRFMKCLKVGMLKEGVRLD [Q57G], the abundance fitness turned out to be 0.122 ± 0.034.

KRLCLVCGDIASGYHYGVASCEACKAFFKRTIQGNIEYSCPATNESEITKRRRKSCQACRFMKCLKVGMLKEGVRLD [C46S]: the abundance fitness was -0.539 ± 0.079. In the case of KRLCLVCGDIASGYHYGVASCEACKAFFKRTIQGYIEYSCPATNECEITKRRRKSCQACRFMKCLKVGMLKEGVRLD [N35Y], the abundance fitness was -0.178 ± 0.12. Take KRLCLVCGDIASGYHYGVASCEACKAFFKRTIQGNIEYSCPATNECEITKRRRKSCQACRFRKCLKVGMLKEGVRLD [M62R]: the abundance fitness is -0.026 ± 0.036.

Consider KRLCLVCGDIASGYHYGVASCEACKAFFKRTIQGNIEKSCPATNECEITKRRRKSCQACRFMKCLKVGMLKEGVRLD [Y38K], for which the abundance fitness was -0.725 ± 0.15. With KSLCLVCGDIASGYHYGVASCEACKAFFKRTIQGNIEYSCPATNECEITKRRRKSCQACRFMKCLKVGMLKEGVRLD [R2S], the abundance fitness is -0.187 ± 0.066. KALCLVCGDIASGYHYGVASCEACKAFFKRTIQGNIEYSCPATNECEITKRRRKSCQACRFMKCLKVGMLKEGVRLD [R2A]: the abundance fitness is -0.226 ± 0.067. On to KRLCLVCGDIASGYHYGVASCEACKAFFKRTIQGNIEYSCPATNECEITKRRNKSCQACRFMKCLKVGMLKEGVRLD [R53N], for which the abundance fitness came to 0.027 ± 0.093. KRLCLVCGDIASGYHYGVASCEACKAFFKRTDQGNIEYSCPATNECEITKRRRKSCQACRFMKCLKVGMLKEGVRLD [I32D]: the abundance fitness is -0.642 ± 0.17. Take KRLCLVCGDYASGYHYGVASCEACKAFFKRTIQGNIEYSCPATNECEITKRRRKSCQACRFMKCLKVGMLKEGVRLD [I10Y]: the abundance fitness is -0.029 ± 0.084. Turning to KRLCLVCGDPASGYHYGVASCEACKAFFKRTIQGNIEYSCPATNECEITKRRRKSCQACRFMKCLKVGMLKEGVRLD [I10P], the abundance fitness was found to be 0.065 ± 0.072. Consider KRLKLVCGDIASGYHYGVASCEACKAFFKRTIQGNIEYSCPATNECEITKRRRKSCQACRFMKCLKVGMLKEGVRLD [C4K], for which the abundance fitness is -0.66 ± 0.13. For the variant KRLALVCGDIASGYHYGVASCEACKAFFKRTIQGNIEYSCPATNECEITKRRRKSCQACRFMKCLKVGMLKEGVRLD [C4A], the abundance fitness is -0.801 ± 0.11. On to KRLCLVCNDIASGYHYGVASCEACKAFFKRTIQGNIEYSCPATNECEITKRRRKSCQACRFMKCLKVGMLKEGVRLD [G8N], for which the abundance fitness is -0.758 ± 0.18. With KRLCLVCGDIASIYHYGVASCEACKAFFKRTIQGNIEYSCPATNECEITKRRRKSCQACRFMKCLKVGMLKEGVRLD [G13I], the abundance fitness stood at 0.038 ± 0.17. With KRLCLVCGDIASGYHYGVASCEACKAFVKRTIQGNIEYSCPATNECEITKRRRKSCQACRFMKCLKVGMLKEGVRLD [F28V] the figure was -0.315 ± 0.047; with KRLCLQCGDIASGYHYGVASCEACKAFFKRTIQGNIEYSCPATNECEITKRRRKSCQACRFMKCLKVGMLKEGVRLD [V6Q], -0.781 ± 0.14; with KRLCLVCGDIASGYHYGVASCEACKAFFKRTIQGNIEYSCPATNECEITKRRRKSCQACRFMKHLKVGMLKEGVRLD [C64H], -1.04 ± 0.4.

On to KRLCLVCGDIASGYHYGVASCEACKAFFKRTIQGNIEYSCPATNECEITKRRRKSCQACRFMSCLKVGMLKEGVRLD [K63S], for which the abundance fitness was -0.611 ± 0.069. Turning to KRLCLVCGDIASGYHYGVASCEACKAFFKRTIQGNIEYSCPATNECEITKRRRKSCQACRFMKCLKVGMLQEGVRLD [K71Q], the abundance fitness was -0.153 ± 0.073.

In the case of KRLCLVCGDIASGYHYGVASCEACKAFFKRTIQGNIEYSCPATNECEITKRRRKSCQACRFMKCLKVGMLVEGVRLD [K71V], the abundance fitness is -0.02 ± 0.045. In the case of KRLCLVCGDIASGYHYGVASCEACKAFFKRTIQGNIEYSCPATNECEITKRRRKSCQACRFMKCLKVGMLEEGVRLD [K71E], the abundance fitness was -0.07 ± 0.054. To KRLCLVCGDIASGYHYGVASCEACKAFFKRTIQGNIEYSCPATNECEITKRRRKSCQACRFMKCLKVGMLKNGVRLD [E72N] belongs 0.02 ± 0.092; to KRLCLVCGDIASGYHYGVASCEACKAFFKRTIQGNIEYSQPATNECEITKRRRKSCQACRFMKCLKVGMLKEGVRLD [C40Q], -0.604 ± 0.12; to KRLCLVCGDIASGYHYGVASCEACKAFFKRTIQGNIEYSCPATNECEITKRRRCSCQACRFMKCLKVGMLKEGVRLD [K54C], -0.351 ± 0.1. For KRLCLVCGDIASGYHYGVASCEACKAFFKRTIQGNIEYSCPATNECEITKRRRKSCQACRFMKCLKVGMIKEGVRLD [L70I], the abundance fitness is 0.034 ± 0.095. To KRLCLVCGDIASGYHYGVASCEACKAFFKRTIQGNIEYSCPATNECEITKRRRKSCQACRFMKCLKVGMKKEGVRLD [L70K] belongs 0.13 ± 0.066. As for KRLCLVCGDIASGYHYGVASCEACKAFFKRTIQGNIEYSCPATNECEITKRRRKSCQACRFMKCLKVGMLKEGVRYD [L76Y], the abundance fitness is -0.001 ± 0.12. To KRLCLVCGDIASGYHYGVASCEACKAFFKRTIQGNIEYSCPATNECEITKRRRKSCQACRFMKCLKVGMLKEGVRCD [L76C] belongs -0.099 ± 0.11; to KRLCLVCGDIASGYHYGVASCEACKAFFKRTIQGNIEYSCPATNECEITKRRRKSCQACRGMKCLKVGMLKEGVRLD [F61G], -0.602 ± 0.056; to KRLCLVCGDIASGYHYGVASCEACPAFFKRTIQGNIEYSCPATNECEITKRRRKSCQACRFMKCLKVGMLKEGVRLD [K25P], 0.278 ± 0.051. Regarding KRLCLVCGDIASGYHYGVASCEACKAFFKRTIQGNIEYSCPATNECEITKRRRKSCQACRFMKCLKVGMLKEGVTLD [R75T], the abundance fitness stood at 0.062 ± 0.059.
